Values belong to the binder of their own block, whether it stands above or below them.
Columns and labels:
Conditions in all cases: both partners purified
[1] = target: T1, PGC1α 6X his-tagged construct (UniProt Q9UBK2 1-798); test: SPR; Biacore T200; ~1000 RU PGC1α 6X his held non-covalently on a Ni-NTA chip; Clk1 flowed, 30 µl/min; one-site specific binding model with Hill slope
T1 construct: PGC1α, 6X his-tagged construct held on a Ni-NTA chip
T1 sequence (looked up): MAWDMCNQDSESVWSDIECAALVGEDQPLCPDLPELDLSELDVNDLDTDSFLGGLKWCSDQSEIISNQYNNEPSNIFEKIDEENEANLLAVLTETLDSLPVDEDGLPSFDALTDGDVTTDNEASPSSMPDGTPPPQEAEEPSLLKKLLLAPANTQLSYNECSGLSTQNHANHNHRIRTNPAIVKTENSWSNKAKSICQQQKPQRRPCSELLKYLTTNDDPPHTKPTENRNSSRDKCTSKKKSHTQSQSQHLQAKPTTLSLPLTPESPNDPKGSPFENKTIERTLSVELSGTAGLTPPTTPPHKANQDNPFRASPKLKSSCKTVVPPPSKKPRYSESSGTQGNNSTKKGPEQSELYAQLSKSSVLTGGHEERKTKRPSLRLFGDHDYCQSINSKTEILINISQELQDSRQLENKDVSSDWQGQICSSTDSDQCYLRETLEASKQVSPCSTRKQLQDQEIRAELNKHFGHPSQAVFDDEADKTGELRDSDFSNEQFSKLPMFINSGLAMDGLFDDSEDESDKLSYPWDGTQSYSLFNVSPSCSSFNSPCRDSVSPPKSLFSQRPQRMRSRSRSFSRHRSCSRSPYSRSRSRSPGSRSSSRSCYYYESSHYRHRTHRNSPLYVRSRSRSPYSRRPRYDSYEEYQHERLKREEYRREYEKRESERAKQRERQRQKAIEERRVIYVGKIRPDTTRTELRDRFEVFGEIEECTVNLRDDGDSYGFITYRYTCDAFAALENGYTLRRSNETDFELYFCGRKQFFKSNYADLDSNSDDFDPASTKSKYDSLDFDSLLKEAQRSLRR

[2] = target: T2, Clk4 (recombinant, covalently immobilised on the CM5 chip) (UniProt Q9HAZ1 1-481); test: SPR; Biacore T200; Clk1, Clk2 (1000 RU) and Clk4 (1000 RU) covalently immobilised on a CM5 chip by NHS/EDC; PGC1α titrated in HBS-N without DMSO, 30 µl/min, 60 s association, 120 s dissociation; steady state, one-site specific binding model
T2 construct: Clk4 kinase, recombinant; source: bought: Abcam#AB204144 (recombinant)

[3] = target: T3, Clk1 (recombinant, covalently immobilised on the CM5 chip) (UniProt P49759 1-484); test: as above
T3 construct: Clk1 kinase, recombinant; The methods print the catalogue number beside PDB 1Z57, which was used for modelling; also called Clk1 GST; source: bought: AbCam #114 706 (recombinant)

[4] = target: T4, Clk2 (recombinant, covalently immobilised on the CM5 chip) (UniProt P49760 1-499); test: as above
T4 construct: Clk2 kinase, recombinant; source: bought: Abcam #AB63190 (recombinant)
T4 sequence (P49760 whole entry): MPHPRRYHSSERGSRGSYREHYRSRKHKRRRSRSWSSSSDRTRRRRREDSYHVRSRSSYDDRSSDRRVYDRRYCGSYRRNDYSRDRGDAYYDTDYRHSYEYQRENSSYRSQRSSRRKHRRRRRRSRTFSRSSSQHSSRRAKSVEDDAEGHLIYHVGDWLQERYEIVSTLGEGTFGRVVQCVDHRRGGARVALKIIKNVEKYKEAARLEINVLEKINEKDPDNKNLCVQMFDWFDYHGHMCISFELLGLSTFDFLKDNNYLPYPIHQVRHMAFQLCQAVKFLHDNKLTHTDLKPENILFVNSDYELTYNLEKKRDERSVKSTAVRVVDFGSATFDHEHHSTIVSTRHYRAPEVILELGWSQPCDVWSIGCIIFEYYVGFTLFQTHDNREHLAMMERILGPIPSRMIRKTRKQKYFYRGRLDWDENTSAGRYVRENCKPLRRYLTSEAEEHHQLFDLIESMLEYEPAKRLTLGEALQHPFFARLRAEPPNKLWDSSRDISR

T3 sequence (P49759 whole entry): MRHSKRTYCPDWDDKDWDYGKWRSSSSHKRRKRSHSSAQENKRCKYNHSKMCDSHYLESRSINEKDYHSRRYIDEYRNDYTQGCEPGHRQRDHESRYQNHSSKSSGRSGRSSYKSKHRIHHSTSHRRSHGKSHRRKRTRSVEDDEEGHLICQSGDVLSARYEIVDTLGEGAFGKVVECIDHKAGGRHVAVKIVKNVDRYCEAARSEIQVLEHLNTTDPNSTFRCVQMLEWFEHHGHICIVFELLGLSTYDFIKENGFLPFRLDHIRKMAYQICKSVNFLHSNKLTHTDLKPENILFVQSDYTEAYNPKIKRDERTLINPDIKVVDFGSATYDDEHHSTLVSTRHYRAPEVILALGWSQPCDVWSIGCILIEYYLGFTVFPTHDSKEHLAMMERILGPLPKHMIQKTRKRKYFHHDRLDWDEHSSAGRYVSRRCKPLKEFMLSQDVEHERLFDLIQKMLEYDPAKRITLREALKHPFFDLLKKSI
T2 sequence (Q9HAZ1 whole entry): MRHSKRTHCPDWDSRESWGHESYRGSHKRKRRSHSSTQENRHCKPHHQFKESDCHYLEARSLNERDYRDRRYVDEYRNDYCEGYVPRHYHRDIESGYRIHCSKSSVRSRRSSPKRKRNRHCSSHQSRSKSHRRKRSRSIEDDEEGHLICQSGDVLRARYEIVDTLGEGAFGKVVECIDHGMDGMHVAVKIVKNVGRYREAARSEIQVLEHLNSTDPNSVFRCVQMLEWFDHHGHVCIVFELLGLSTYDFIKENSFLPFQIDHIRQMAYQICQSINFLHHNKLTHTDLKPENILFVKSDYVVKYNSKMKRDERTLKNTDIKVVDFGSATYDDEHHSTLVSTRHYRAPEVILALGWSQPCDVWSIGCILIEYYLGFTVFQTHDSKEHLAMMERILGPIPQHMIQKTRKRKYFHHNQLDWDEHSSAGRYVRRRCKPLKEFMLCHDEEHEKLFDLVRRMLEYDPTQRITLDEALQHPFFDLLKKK

- Kd [1]: ~38 nM
B1: Clk1 (flowed over immobilised PGC1α 6X his) (enzyme)
chain: not shown
notes: Clk1 kinase, recombinant; May be the same bought protein as m1 (AbCam #114 706)

- Kd [2]: 509 nM
- Kd [3]: 240 nM
- Kd [4]: 980 nM
B2: PGC1α (titrated and flowed over the Clk chips) (natural protein)
chain: TRTELRDRFEVFGEIEECTVNLRDDGDSYGFITYRYTCDAFAALENGYTLRRSNETDFELYFCGRKQFFKSNYADLDSNSDDFDPASTKSKYDSLDFDSLLKEAQRSLRR
modifications: Limits are not printed. They are recalled from the supplier's listing for catalogue H00010891-Q01 (partial human PPARGC1A, NP_037393 aa 689-798, N-terminal GST) and should be verified. GST is left …
